Source: patent US20180017572A1

Target: complement factor C1q (UniProt P02745)
Assay: flow cytometry: BT-474 cells with 10 µg/mL antibody, then 10 µg/mL C1q, detected with PE-labeled anti-C1q antibody

complement factor C1q, sequence (P02745 23-245 limits assumed, chain 1 of 3): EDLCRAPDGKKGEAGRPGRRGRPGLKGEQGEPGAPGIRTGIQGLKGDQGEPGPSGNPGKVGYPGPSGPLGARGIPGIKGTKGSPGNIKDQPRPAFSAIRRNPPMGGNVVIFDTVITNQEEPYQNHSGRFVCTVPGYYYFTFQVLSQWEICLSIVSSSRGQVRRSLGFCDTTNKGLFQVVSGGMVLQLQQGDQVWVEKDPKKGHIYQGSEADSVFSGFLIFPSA
complement factor C1q, sequence (P02746 28-253 limits assumed, chain 2 of 3, further chain): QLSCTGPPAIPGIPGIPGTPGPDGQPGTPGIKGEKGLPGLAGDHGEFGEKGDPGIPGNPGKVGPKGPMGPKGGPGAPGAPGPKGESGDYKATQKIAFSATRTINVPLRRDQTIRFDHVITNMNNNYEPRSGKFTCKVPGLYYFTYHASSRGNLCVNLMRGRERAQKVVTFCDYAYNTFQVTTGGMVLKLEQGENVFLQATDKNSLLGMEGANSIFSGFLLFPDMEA
complement factor C1q, sequence (P02747 29-245 limits assumed, chain 3 of 3, further chain): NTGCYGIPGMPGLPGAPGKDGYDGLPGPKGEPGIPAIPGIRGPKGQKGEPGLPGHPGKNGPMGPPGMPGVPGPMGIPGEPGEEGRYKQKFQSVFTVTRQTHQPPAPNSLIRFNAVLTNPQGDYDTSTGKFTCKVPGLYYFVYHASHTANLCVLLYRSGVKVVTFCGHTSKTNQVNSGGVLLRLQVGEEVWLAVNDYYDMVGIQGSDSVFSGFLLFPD

In the case of “combination of trastuzumab and pertuzumab (from UniProt P0DOX5 2-449; P0DOX5 2-449)”, the PE-signal (geomean) (geomean PE-signal) is reported as 2160.
